The target in the test is C-terminal region of APC (APC-CT), FLAG-tagged. As to the kind of experiment: AlphaScreen. Conditions: Donor: Gag MA-GST-biotin; acceptor: APC(CT)-FLAG; n=3; parent: est. 2.1; read off a plot. On the technique in general: Alpha assays give light when donor and acceptor beads are brought close together.

As for “Fyn(10)WT (wild-type protein of the AlphaScreen with MA HBR mutants) 6A2T: HBR segment […] -> […] (K>A; K>A; R>A; R>A; K>A; K>A; K>T; K>T, in segment order)”, the response was 0.25 10^3 RLU.

Regarding “Fyn(10)WT (wild-type protein of the AlphaScreen with MA HBR mutants) RKswitch: HBR segment […] -> […] (K>R; K>R; R>K; R>K; K>R; K>R; K>R; K>R, in segment order)”, the response was 2.3 10^3 RLU.

These data come from paper PMC5290283.
